Measurements: patent publication US20140105855A1 (published 2014)

T1: preformed IL-17RB-IL-25 complex (IL-25 captured by immobilised IL-17RB) (UniProt Q9NRM6 18-292; Q9H293 33-177, biotin on the C-terminal BirA ligase tag)
T1 construct: extracellular domain;mature; One receptor with one cytokine dimer, assembled stepwise on the SPR chip; not shown: C-terminal BirA ligase tag
T1 sequence 1: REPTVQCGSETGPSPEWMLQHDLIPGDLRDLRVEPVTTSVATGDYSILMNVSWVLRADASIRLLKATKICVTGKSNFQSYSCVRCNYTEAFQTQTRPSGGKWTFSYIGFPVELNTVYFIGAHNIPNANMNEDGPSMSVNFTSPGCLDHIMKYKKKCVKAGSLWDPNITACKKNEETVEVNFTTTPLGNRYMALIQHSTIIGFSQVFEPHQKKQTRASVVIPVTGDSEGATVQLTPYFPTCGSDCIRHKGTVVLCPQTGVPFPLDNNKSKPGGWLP
T1 sequence 2: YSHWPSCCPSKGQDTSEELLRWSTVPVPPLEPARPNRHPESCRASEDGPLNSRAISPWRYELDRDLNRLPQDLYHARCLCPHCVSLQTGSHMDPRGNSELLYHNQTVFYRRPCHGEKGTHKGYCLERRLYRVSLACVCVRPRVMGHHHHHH

B1: IL-17RC extracellular domain (receptor, UniProt Q8NAC3 21-538, looked up)
chain: LERLVGPQDATHCSPVSLEPWGDEERLRVQFLAQQSLSLAPVTAATARTALSGLSGADGRREERGRGKSWVCLSLGGSGNTEPQKKGLSCRLWDSDILCLPGDIVPAPGPVLAPTHLQTELVLRCQKETDCDLCLRVAVHLAVHGHWEEPEDEEKFGGAADSGVEEPRNASLQAQVVLSFQAYPTARCVLLEVQVPAALVQFGQSVGSVVYDCFEAALGSEVRIWSYTQPRYEKELNHTQQLPDCRGLEVWNSIPSCWALPWLNVSADGDNVHLVLNVSEEQHFGLSLYWNQVQGPPKPRWHKNLTGPQIITLNHTDLVPCLCIQVWPLEPDSVRTNICPFREDPRAHQNLWQAARLQLLTLQSWLLDAPCSLPAEAALCWRAPGGDPCQPLVPPLSWENVTVDKVLEFPLLKGHPNLCVQVNSSEKLQLQECLWADSLGPLKDDVLLLETRGPQDNRSLCALEPSGCTSLPSKASTRAARLGEYLLQDLQSGQCLQLWDDDLGALWACPMDKYIHKR
notes: extracellular domain; biotinylated when immobilised
B2: IL-17F (ligand, human)
chain: RKIPKVGHTFFQKPESCPPVPGGSMKLDIGIINENQRVSMSRNIESRSTSPWNYTVTWDPNRYPSEVVQAQCRNLGCINAQGKEDISMNSVPIQQETLVVRRKHQGCSVSFQLEKVLVTVGCTCVTPVIHHVQHHHHHH
notes: mature; For the crystal the His tag was removed with carboxypeptidase A and the complex was lysine-methylated; For SPR the cytokine carried the C-terminal hexa-His tag; also called IL-17F homodimer
B3: IL-25 (ligand)
chain: T1 sequence 2
notes: mature; The form 'mature' is inferred from secretion; also called IL-17E
B4: IL-17RB extracellular domain (receptor, UniProt Q9NRM6 18-292, looked up)
chain: T1 sequence 1
notes: extracellular domain; biotinylated when immobilised on the SPR chip

How the values were obtained:
[1] = biological target: T2, preformed IL-17RA-IL-17A complex (IL-17A captured by immobilised IL-17RA) (human, UniProt Q16552 24-155); test: SPR, second receptor injected over IL-17A captured on immobilised IL-17RA
T2 construct: mature; One receptor with one cytokine dimer, assembled stepwise on the SPR chip; not shown: C-terminal BirA ligase tag
T2 sequence (Q16552 other isoform, or with tags, fused parts or gaps): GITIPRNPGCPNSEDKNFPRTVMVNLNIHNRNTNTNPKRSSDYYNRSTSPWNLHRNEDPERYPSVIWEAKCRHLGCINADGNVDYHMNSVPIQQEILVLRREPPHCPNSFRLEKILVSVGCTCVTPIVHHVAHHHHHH
Source text: (§1) This strategy involved immobilizing one receptor on a SPR chip at a low coupling density in order to minimize possible homo-dimerization (e.g. cross-linking) of the receptors on the chip. The dimeric IL-17 cytokine was then captured by this receptor so that each receptor would be bound to one dimeric IL-17 ligand, leaving an exposed and accessible second receptor-binding site. The second receptor was subsequently passed over the preformed receptor-cytokine complexes to measure the affinity of the second receptor-binding event. In this fashion, the complex was assembled in a stepwise manner and each of the binding affinities was measured (FIG. 3).
(§2) Binding affinities were calculated via surface plasmon resonance (SPR) on a Biacore® T100 (GE Healthcare). C-terminally biotinylated IL-17 receptors were coupled to immobilized streptavidin on either an SA or CM4-sensor chip (GE Healthcare). An irrelevant, biotinylated protein was captured at equivalent immobilization densities to control flow cells. To measure the second receptor binding interaction, the cytokine was first captured to the immobilized receptor, followed by the second receptor injection. Low coupling densities (200-400 RU) and excess cytokine concentrations were used to optimize the number of cytokine homodimers bound to a single receptor. […] Data was analyzed using Biacore® T100 evaluation software Version 2.0 (GE Healthcare). […]

[2] = biological target: T3, preformed IL-17RC-IL-17A complex (IL-17A captured by immobilised IL-17RC) (UniProt Q8NAC3 21-538; Q16552 24-155, biotin on the C-terminal BirA ligase tag); test: SPR, second receptor injected over IL-17A captured on immobilised IL-17RC
T3 construct: extracellular domain;mature; One receptor with one cytokine dimer, assembled stepwise on the SPR chip; also called existing IL-17RC-IL-17A complex; not shown: C-terminal BirA ligase tag
T3 sequence (Q16552 other isoform, or with tags, fused parts or gaps): as above
Source text: as §1, §2

[3] = biological target: B1; test: SPR, biotinylated receptor on streptavidin chip, cytokine injected
Experimental: (§3) Binding affinities were calculated via surface plasmon resonance (SPR) on a Biacore® T100 (GE Healthcare). C-terminally biotinylated IL-17 receptors were coupled to immobilized streptavidin on either an SA or CM4-sensor chip (GE Healthcare). An irrelevant, biotinylated protein was captured at equivalent immobilization densities to control flow cells. To measure the second receptor binding interaction, the cytokine was first captured to the immobilized receptor, followed by the second receptor injection. Low coupling densities (200-400 RU) and excess cytokine concentrations were used to optimize the number of cytokine homodimers bound to a single receptor. The surface was regenerated using 3 M MgCl2 between each cycle. For kinetic experiments, a flow rate of 50 μl/min was used. Data was analyzed using Biacore® T100 evaluation software Version 2.0 (GE Healthcare). Affinities are reported as the mean of at least two independent experiments±the standard error of the mean (s.e.m.).

[4] = biological target: B4; test: SPR, IL-25 captured on immobilised IL-17RB
Experimental: (§4) To examiner whether IL-17RA may only specifically bind IL-25 once IL-25 is captured by IL-17RB, IL-17RB was immobilized on an SPR chip, IL-25 was passed over this chip and the affinity of IL-17RA for the IL-17RB-IL-25 complex was measured. […] At concentrations up to 50 μM, no interaction could be observed between IL-17RA and IL-25, or between the IL-17RB-IL-25 complex and a second IL-17RB molecule.
as §3

[5] = biological target: T1, preformed IL-17RB-IL-25 complex (IL-25 …); test: SPR; second receptor injected over IL-25 captured on immobilised IL-17RB
Experimental: as §4, §3

Binder: B1
- Kd [1]: 174 nM
- Kd [2]: 8000 nM

Binder: B2
- Kd [3]: 4.4 nM

Binder: B3
- binding result [4]: binds

Binder: B4
- binding result [5]: no binding (tested: up to 50 µM)
